{"source": "patent EP1745799B1", "biological_target": "ΔEGFR (extracellular-deleted mutant human EGFR) (human) (UniProt P00533)", "test": "cell-based or functional assay"}
{"substance": "T691stop neu (ectodomain-derived, carboxyl-terminal deletion mutant of the rat p185neu oncogene) (from UniProt P06494 23-687) (receptor)", "values": [{"measurement": "decrease of the phosphorylation content of immunoprecipitated p155ΔEGFR monomers (scanning densitometry, PY-20 blot of mAb Δ124 immunoprecipitates)", "result": 33.7, "unit": "%"}, {"measurement": "ratio of PTyr/ΔEGFRs (scanning densitometry)", "result": 1.04}]}
